From paper PMC3929611 (2014)
Primed or numbered codes have the meaning given here. Ends that are not written are not given here. FITC′ = fluorescein isothiocyanate

B1: A10 scFv (anti-α1 subunit-specific scFv), soluble protein (scFv, V domains shown)
VH: EVQLVQSGAEVKKPGASVKVSCKASGYTFTSYYMHWVRQAPGQGLEWMGIINPSGGSTSYAQKFQGRVTMTRDTSTSTVYMELSSLRSEDTAVYYCARDGWGGSSFLDYWGQGTLVTVSS
VL: SYELTQPPSVSVSPGQTARITCSGDALPKKYAYWYQQKSGQAPVLVIYEDSKRPSGIPERFSGSSSGTMATLTISGAQVEDEADYYCYSKDNTGYQMVFGGGTKLTVL
B2: G8 scFv (anti-β2 subunit scFv), soluble protein (scFv, V domains shown)
VH: EVQLVQSGAEVKKPGATVKISCKVSGYTFTDYYMHWVQQAPGKGLEWMGLVDPEDGETIYAEKFQGRVTITADTSTDTAYMELSSLRSEDTAVYYCATTPPHDYYDSSGLDYWGQGTLVTVSS
VL: DIQMTQSPSSVSASVGDRVTITCRASQGINRWLAWYQQKPGKAPKLLIYAASNLQSGVPSRFSGSGSGTDFSLTISSLQPEDFATYYCQQSYSPPSTFGGGTKLEIK

Legend:
FITC-labeled α1 peptide = target: T1, FITC-labeled α1 peptide (rat); assay: FP
T1 peptide: {FITC′}-QPSQDELKDNTTVFT

FITC-labeled β2 peptide = target: T2, FITC-labeled β2 peptide (rat, UniProt P63138); assay: FP
T2 peptide: {FITC′}-MWRVRKRGYFGIWSFPLII

Row | Binder | Kd (FITC-labeled α1 peptide) | Kd (FITC-labeled β2 peptide)
1 | B1 | 3000 nM | 
2 | B2 |  | 820 nM
